Where a chain is given by its changes, count along the chain named.

The chains are these.
T1: BCMA-Fc recombinant protein (human, UniProt Q02223 1-54)
T1 construct: construct not described; not shown: Fc part
T1 sequence (looked up): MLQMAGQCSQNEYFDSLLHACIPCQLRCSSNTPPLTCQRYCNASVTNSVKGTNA

B1: huVH3huVL2 (antibody, human IgG1, kappa, V domains shown)
VH: QVQLQESGPGLVKPSETLSLTCTVSGFSLSDYGVHWVRQSPGKGLEWIGVIWAGGGTNYNSALKSRKTISKDNSKSQVSLKLSSVTAADTAVYYCARDKGYSYYYSMDYWGQGTTVTVSS
VL: DIQLTQSPSSLSASVGDRVTITCRASESVEYYVTSLMQWYQQKPGKAPKLLIFAASNVESGVPSRFSGSGSGTNFTLTISSVQPEDFATYFCQQSRKVPYTFGGGTKLEIKR
B2: huVH2huVL3 (antibody, human IgG1, kappa, V domains shown)
VH: B1 VH with L20I, S40P, I48L, K64M, N73T, S76N, L82M, V85L
VL: B1 VL with N74D, V82L, F91Y
B3: huVH5huVL2 (antibody, human IgG1, kappa, V domains shown)
VH: B1 VH with L29I, V37I, S40P, S61P, A62S, K67V, K71V, N73T, S76N
VL: B1 VL
B4: huVH2huVL2 (antibody, human IgG1, kappa, V domains shown)
VH: B1 VH with L20I, S40P, I48L, K64M, N73T, S76N, L82M, V85L
VL: B1 VL
B5: huVH1huVL2 (antibody, human IgG1, kappa, V domains shown)
VH: B1 VH with Q3K, L20I, I48L, K64M, S79F, L82M, V85L
VL: B1 VL
B6: huVH3huVL3 (antibody, human IgG1, kappa, V domains shown)
VH: B1 VH
VL: B1 VL with N74D, V82L, F91Y
B7: huVH1huVL1 (antibody, human IgG1, kappa, V domains shown)
VH: B1 VH with Q3K, L20I, I48L, K64M, S79F, L82M, V85L
VL: B1 VL with A13V, T22S, K46Q, P84E, T89M
notes: also called huVH1VL1; 9.3h11
B8: huVH4huVL2 (antibody, human IgG1, kappa, V domains shown)
VH: B1 VH with V37I, S40P, K67V, K71V, N73T, S76N
VL: B1 VL
B9: huVH4huVL3 (antibody, human IgG1, kappa, V domains shown)
VH: B1 VH with V37I, S40P, K67V, K71V, N73T, S76N
VL: B1 VL with N74D, V82L, F91Y
B10: huVH3huVL1 (antibody, human IgG1, kappa, V domains shown)
VH: B1 VH
VL: B1 VL with A13V, T22S, K46Q, P84E, T89M
B11: BCMA30 (scFv)
scFv: DIQMTQSPSFLSASVGDRVTITCRASQGISSYLAWYQQKPGKAPKLLIYAASTLQSGVPSRFSGSGSGTEFTLTISSLQPEDFATYYCQQLNSYPPWTFGQGTKVEIKGGGGSGGGGSGGGGSQVQLVQSGAEVKKPGESLKISCKGSGYRFTSYWIGWVRQMPGKGLEWMGIIYPGDSDTRYSPPFQGQVTISADKSIDTAYLQWSSLKASDTAMYYCARLDASGSQRGGMDVWGQGTTVTVSS
notes: On lentivirus-transduced T cells as CAR; also called anti-BCMA scFv BCMA30
B12: BCMA28 (scFv)
scFv: QSALTQPPSVSEAPRQRVTISCSGSSSNIGQNAVNWYQKLPGKAPKLLIYYNDLVSSGVSDRFSGSKSGTSASLAISGLQSEDEADYYCATWDDSLNGVVFGGGTKVTVLGGGGSGGGGSGGGGSQVQLVQSGPGLVKPSQTLSLTCAISGDSVSSNSAAWNWIRQSPSRGLEWLGRTYYRSKWYNDYAVSVKSRITINPDTSKNQFSLQLNSVTPEDTAVYYCARDYYYGMDVWGQGTTVTVSS
notes: On lentivirus-transduced T cells as CAR; also called anti-BCMA scFv BCMA28
B13: BCMA32 (scFv)
scFv: QSALTQPASVSGSPGQSITISCTGTSSDVGGYNYVSWYQQHPGKAPKLMIYDVSKRPSGVSNRFSGSKSGNTASLTISGLQAEDEADYYCSSYTSSSTVVFGGGTKLTVLGGGGSGGGGSGGGGSQVQLQESGAEVKKPGSSVKVSCKASGGTFSRYAISWVRQAPGQGLEWMGGIIPFFGTSDYAQKFQGRVTITADESTSTAYMDLSRLRSEDTAVYYCAVRVATTGTGFYYAMDVWGQGTTVTVSS
notes: On lentivirus-transduced T cells as CAR; also called anti-BCMA scFv BCMA32
B14: BCMA22 (scFv)
scFv: QSALTQPASVSGSPGQSITISCTGTSSDVGGYNYVSWYQQHPGKAPKLMIYEVTNRPSGVSNRFSGSKSGNTASLTISGLQAEDEAHYYCISYTSSSTLDYVFGTGTKVTVLGGGGSGGGGSGGGGSEVQLVESGPGLVKPSGTLSLTCAVSGGSISSSNWWSWVRQPPGKGLEWIGEIYHSGSTNYNPSLKSRVTISVDKSKNQFSLKLSSVTAADTAVYYCARVGSGYSYGYGDRVLDYWGQGTLVTVSS
notes: On lentivirus-transduced T cells as CAR; also called anti-BCMA scFv BCMA22
B15: BCMA27 (scFv)
scFv: QSALTQPPSASGSPGQSVTISCTGSRSNVGSYNDVSWYQQHPGKAPKLIIYDVDKRPAGVPDRFSGSKSGNTASLTVSGLQAEDDADYYCSSYGGTYSLFVFGTGTELTVLGGGGSGGGGSGGGGSEVQLVESGGDLVQPGGSLRLSCAASGFTFSSYGMHWVRQAPGKGLEWVAVISYDGSNKYYADSVKGRFTISRDNSKNTLYLQMNSLRAEDTAVYYCAKEEFYGDSSYGMDVWGQGTTVTVSS
notes: On lentivirus-transduced T cells as CAR; also called anti-BCMA scFv BCMA27
B16: BCMA23 (scFv)
scFv: QSALTQPPSASGTPGQRVTISCSGSSPNIGGNSVNWYQQLPGTAPKLLMYTNNQRPSGVPDRFSGSKSGTSASLAISGLQSEDEADYYCAAWDDSLNGVVFGGGTKLTVLGGGGSGGGGSGGGGSQVQLVQSGAEVKKPGESLKISCKGSGYSFTSYWIGWVRQMPGKGLEWMGIIYPGDSDTRYSPSFQGQVTISADKSISTAYLQWSSLKASDTAMYYCARRGGALDYWGQGTLVTVSS
notes: On lentivirus-transduced T cells as CAR; also called anti-BCMA scFv BCMA23
B17: BCMA24 (scFv)
scFv: QSVLTQPPSASGTPGQRVTISCSGSSSNIGSYSVNWYQQIPGTAPKLLIYSNNQRPSGVPDRFSGSKSGTSASLAISGLQSEDEADYSCAAWDDSLNGVVFGGGTKLTVLGGGGSGGGGSGGGGSQVQLVQSGAEVKKPGSSVKVSCKASGGTFSSYAISWVRQAPGQGLEWMGGIIPIFGTANYAQKFQGRVTITADESTSTAYMELSSLRSEDTAVYYCARGSFYSSVNVWGQGTTVTVSS
notes: On lentivirus-transduced T cells as CAR; also called anti-BCMA scFv BCMA24
B18: BCMA33 (scFv)
scFv: QSALTQPPSASGSPGQSVTISCTGTSSDVGGYNYVSWYQQHPGKAPKLMIYEVSKRPSGVPDRFSGSKSGNTASLTVSGLQAEDEADYFCSSYAGSNNFVVFGGGTKLTVLGGGGSGGGGSGGGGSEVQLVESGGGLVQPGRSLRLSCAASGFTFDDYAMHWVRQAPGKGLEWVSGISWNSGSIGYADSVKGRFTISRDNAKNSLYLQMNSLRAEDTALYYCAKVGASAALGAFDIWGQGTMVTVSS
notes: On lentivirus-transduced T cells as CAR; also called anti-BCMA scFv BCMA33
B19: BCMA31 (scFv)
scFv: QSALTQPPSASGSPGQSVTISCTGTSSDVGTYNYVSWYQQHPGKAPKLMIYDVNQRPSGVPDRFSGSKSGNTASLTVSGLQAEDEADYYCSSYGGSNNLVFGGGTKVTVLGGGGSGGGGSGGGGSEVQLVESGGGLIQPGGSLRLSCAASGFTFSSYWMSWVRQSPGKGLEWVANIKPDGSDKYYVDSVKGRFTISRDNAKNSLDLQMNSLRGEDTAIYYCARGATTYGSWGQGTLVTVSS
notes: On lentivirus-transduced T cells as CAR; also called anti-BCMA scFv BCMA31

The target of the first assay is T2, CD28 (detection antigen of the BLI assay) (human, UniProt P10747 19-152, limits assumed).
T2 construct: also called the antigen
As to the kind of experiment: BLI (GATOR); antibody loaded at 30 nM, antigen 300-37.5 nM. From the text:
The affinity kinetics of the humanized antibodies were detected using biolayer interferometry (BLI). The experimental procedures were as follows: [0533] 1. GATOR instrument was run, and the Kinetics experimental mode was selected. [0534] 2. The analysis program was run according to Table 5
As to B1, the Kd is 9.13 nM, the koff amounted to 0.000782 s⁻¹ and the kon amounted to 85700 M⁻¹ s⁻¹.

B2 yielded a Kd of 7.44 nM, a koff of 0.000635 s⁻¹ and a kon of 85400 M⁻¹ s⁻¹.

The molecule B3 had a Kd of 10.8 nM, a koff of 0.000909 s⁻¹ and a kon of 84100 M⁻¹ s⁻¹.

Molecule B4 came in with a Kd of 6.59 nM, a koff of 0.000584 s⁻¹ and a kon of 88700 M⁻¹ s⁻¹.

In turn, B5 gave a Kd of 6.54 nM, a koff of 0.000582 s⁻¹ and a kon of 89000 M⁻¹ s⁻¹.

B6: the Kd came out at 9.59 nM, the koff stood at 0.000818 s⁻¹ and the on-rate constant (kon) is 85300 M⁻¹ s⁻¹.

As for B7, binding was put at a Kd of 6.13 nM, the koff was determined as 0.000531 s⁻¹ and the kon worked out at 86600 M⁻¹ s⁻¹.

Consider B8, for which binding was characterised by a dissociation constant (Kd) of 10.9 nM, the koff is 0.000932 s⁻¹ and the kon was 85400 M⁻¹ s⁻¹.

Turning to B9, binding was characterised by a dissociation constant (Kd) of 11.2 nM, the koff worked out at 0.000966 s⁻¹ and the kon was found to be 86600 M⁻¹ s⁻¹.

Molecule B10 yielded a Kd of 8.36 nM, a koff of 0.000727 s⁻¹ and a kon of 86900 M⁻¹ s⁻¹.

The target of the next assay is T1, BCMA-Fc recombinant protein. As to the kind of experiment: flow cytometry; CAR-T cells stained with 5 µg/mL BCMA-Fc, anti-human IgG Fc. As to the method: (5) Screening for functional anti-BCMA scFv in T cells: the anti-BCMA scFv was constructed into a bicistronic lentiviral CAR expression vector containing an IRES-truncated EGFR (tEGFR) expression cassette. The lentivirus was produced by transient transfection of 293T cells, followed by purification by ultracentrifugation and concentration. T cells were transduced with the CAR lentivirus to generate CAR-T cells, which were then cultured for 10 days. 10 days after lentivirus transduction, CAR-T cells were collected and stained with 5 μg/mL CD19-Fc protein (Ctrl Fc protein) or BCMA-Fc recombinant protein for 30 min at 4° C. After washing, the CAR-T cells were stained with the anti-human IgG Fc and anti-EGFR mAb. The samples were analyzed using a flow cytometer.
Regarding B11, the binding result is given as “binds”.

Take B12: the binding result was “binds”.

In the case of B13, the binding result is “binds”.

On to B14, for which the binding result is “binds”.

Regarding B15, the binding result is listed as “binds”.

For B16, the binding result is given as “binds”.

As to B17, the binding result is given as “binds”.

For B18, the binding result was “binds”.

For B19, the binding result is reported as “binds”.

Another assay has as its target T3, recombinant Human/Cynomolgus CD28 (N-6His) (Human/Cynomolgus, UniProt P10747 19-152).
T3 construct: Bought protein; also called antigen CD28; not shown: 6His tag at the N-terminus (N-6His)
As to the kind of experiment: ELISA; plate coated with CD28 (N-6His) 2 µg/mL; HRP-anti-hFc. As to the method:
The binding activity of the humanized antibody to the antigen CD28 was detected by the ELISA method. The experimental procedures were as follows: [0525] 1. 30 μL of recombinant Human/Cynomolgus CD28 (N-6His) (Suzhou Novoprotein Scientific Inc., C406) at a concentration of 2 μg/mL was added to each well of an ELISA plate, and the plate was incubated at 4° C. overnight. [0526] 2. The next day, the ELISA plate was washed 3 times with PBST (containing 0.05% Tween-20). [0527] 3. 250 μL of 5% skim milk powder (dissolved in PBS) was added to each well of the ELISA plate, and the plate was incubated at room temperature for 2 h. [0528] 4. The plate was washed 3 times with PBST, antibodies with different dilution ratios were added to the ELISA plate at 30 μL/well, and the plate was incubated at room temperature for 60 min. [0529] 5. The plate was washed 3 times with PBST, 30 μL of HRP-anti-hFc antibody was added to each well, and the plate was incubated at room temperature for 60 min. [0530] 6. The plate was washed 3 times with PBST, 30 μL of TMB was added to each well, and after color development at room temperature, 30 μL of 2 M H₂SO₄ was added to each well to stop the reaction. The plate was read at 450 nm.
Consider B1, for which the EC50 was found to be 0.00914 µg/mL.

In the case of B2, the EC50 came out at 0.0104 µg/mL.

With B3, the EC50 worked out at 0.0151 µg/mL.

As to B4, the EC50 worked out at 0.0126 µg/mL.

Regarding B5, the EC50 was 0.0125 µg/mL.

For the molecule B6, the EC50 stood at 0.00827 µg/mL.

With B7, the EC50 was 0.0151 µg/mL.

For the molecule B8, the EC50 is 0.0126 µg/mL.

Take B9: the EC50 came out at 0.0127 µg/mL.

As for B10, the EC50 worked out at 0.0121 µg/mL.

(Values after patent US20250381223A1 (UTC THERAPEUTICS SHANGHAI, published 2025).)
